Laboratory results reported in paper PMC11036078, “PD‐1 inhibition with retifanlimab and/or arginase inhibition with INCB001158 in Japanese patients with solid tumors: A phase I study” (Cancer Medicine, 2024).
“And” between values parts separate entries of the source, which are not always exact repeats. Equal entries are not always repeated. “Also recorded” adds a separate entry of the source. Where two headings read alike, the source gives them in different places.

Legend:
[1] = Safety and tolerability (TEAEs, DLTs, irAEs; NCI CTCAE v5.0), phase Ib POD1UM-104; conditions: in vivo
Method: This was a phase Ib, open‐label, multicenter study (POD1UM‐104 [NCT03910530]). The study was conducted in 2 parts. In Part 1, patients received single‐agent retifanlimab or escalating doses of single‐agent INCB001158 to confirm the RP2D of each agent. Single‐agent dosing was performed to comply with local regulations. In Part 2, patients received the combination of retifanlimab and INCB001158 at their respective RP2D determined in Part 1, to further explore safety and preliminary evidence of clinical activity. Treatment cycles in Part 1 and Part 2 were 28 days, and patients could receive treatment for up to 2 years, or until disease progression, unacceptable toxicity, death, or patient withdrawal.
In Part 1, 6 patients received retifanlimab 500 mg every 4 weeks (Q4W), given as an i.v. infusion over 60 min; this dose was based on the RP2D determined from global studies. The starting dose of INCB001158 was 75 mg taken orally twice daily (BID). Dose escalation of INCB001158 followed a standard 3 + 3 design; if 75 mg BID was deemed to be tolerable in at least 3 patients, a 100‐mg BID dose level cohort comprising at least 3 patients would be opened.
DLTs were assessed by the investigator according to the National Cancer Institute (NCI) Common Terminology Criteria for Adverse Events (CTCAE) v5.0 criteria (Table S1).
The primary endpoints of the study were safety, tolerability, DLTs, and RP2D of single‐agent retifanlimab, INCB001158, and the combination. Adverse events (AEs) were graded by NCI CTCAE v5.0, and immune‐related adverse events (irAEs) were monitored as AEs of special interest. Physical examinations, monitoring of vital signs, electrocardiograms, and laboratory assessments were conducted throughout the study.
(§1) Safety and efficacy analyses were conducted in the full analysis set, which comprised all enrolled patients who received at least 1 dose of the study drug.
(§2) Safety data were summarized using descriptive statistics. PK parameters were summarized by study part, treatment regimen, cohort, dose levels, and/or visit. ORR and DCR were reported with their exact 95% confidence intervals (CIs); DOR was based on the Kaplan–Meier estimate of the distribution function, and the estimated median along with 95% CI was reported. Statistical analyses were performed using SAS® software v9.4 or later (SAS Institute Inc., Cary, NC, USA).

advanced solid tumors [2] = conditions: cited from earlier work
[3] = Western patients; ref POD1UM‐101 (NCT03059823); cited from earlier work
[4] = Retifanlimab serum pharmacokinetics (electrochemiluminescence immunoassay, noncompartmental analysis); type: in vivo, Japanese patients; conditions: for Retifanlimab tmax: median (min, max)
Method: (§3) Pharmacokinetics of single‐agent retifanlimab and INCB001158, and the combination, were secondary endpoints of the study. The detection of anti‐drug antibodies (ADAs) was an exploratory endpoint. Blood samples for retifanlimab PK assessments were taken on days 1 (−2 h pre‐dose, end of infusion, and 6 h post‐dose), 2, 8, and 15 (no specified time) of cycle 1, day 1 of cycles 2–8 (−2 h pre‐dose, and end of infusion on cycles 2 and 6 only), and day 1 of every 4 cycles after cycle 8 (−2 h pre‐dose). Samples for ADA assessment were collected at the same time as for PK analysis, and an additional sample was collected at safety follow‐up on day 15 (no specified time). Blood samples for INCB001158 were collected pre‐dose, 0.5, 1, 2, 4, 6, and 8 h post‐dose on days 1 and 15 of cycle 1, 12 h post‐dose on day 1 of cycle 1, and pre‐dose on days 2 and 8 for cycle 1, and day 1 of cycle 2. Serum concentrations of retifanlimab were determined using an electrochemiluminescence immunoassay method, and plasma concentrations of INCB001158 were measured using a validated liquid chromatography with tandem mass spectrometry assay (Incyte Corporation, Wilmington, DE, USA). ADAs against retifanlimab were monitored using a bridging immunoassay (Incyte Corporation).
Pharmacokinetics parameters were derived from concentrations versus time data using model‐independent noncompartmental analysis methods (WinNonlin v8.2, Certara USA Inc., Princeton, NJ, USA), and included maximum observed serum or plasma concentration (C max), serum or plasma concentration observed at the end of the dosing interval (C tau), time to maximum observed serum or plasma concentration (t max), area under the serum or plasma concentration–time curve (AUC) from time 0 to the end of the dosing interval (AUCtau), AUC from time 0 to infinity (AUC0‐∞), apparent terminal‐phase disposition half‐life, clearance, and volume of distribution. […]

[5] = system: ADAs against retifanlimab; assay: Anti-drug antibodies against retifanlimab (bridging immunoassay); conditions: samples from 12 Japanese patients
Method: as §3

advanced solid tumors [6] = assay: Clinical activity by investigator per RECIST v1.1 (ORR, DCR, DOR); type: in vivo, Japanese patients
Method: Preliminary clinical activity of single‐agent retifanlimab and INCB001158, and the combination, was an additional secondary endpoint. Diagnostic imaging was performed by computed tomography scan every 8 ± 1 weeks. Clinical activity was assessed by measuring overall response rate (ORR), defined as the percentage of patients experiencing a complete or partial response (CR or PR) as determined by the investigator according to Response Evaluation Criteria in Solid Tumors (RECIST) v1.1; disease control rate (DCR), defined as the percentage of patients maintaining either an objective response or stable disease (SD) for at least 12 weeks per RECIST v1.1; and duration of response (DOR), defined as the time from first observed response until onset of progressive disease (PD) as determined by the investigator according to RECIST v1.1 or death from any cause.
as §1, §2

[7] = first dose, in combination with INCB001158, n = 3
[8] = first dose, monotherapy 500 mg Q4W, n = 6
[9] = first dose, POD1UM-104 vs POD1UM‐101
[10] = RECIST v1.1, investigator, n = 6 per group
[11] = RECIST v1.1, investigator, n = 6 per group, listed as retifanlimab

## Retifanlimab: humanized, hinge‐stabilized immunoglobulin G4κ monoclonal antibody targeting PD‐1
[1]
  Grade 3 AEs reported but not occurring during the treatment window: lymphocyte count decreased
  Retifanlimab infusion interruption because of a TEAE: 1 (16.7) n (%)
  Serious TEAE after data cutoff: myocarditis
  Serious TEAEs (terms): grade 3 femoral neck fracture (n = 1), grade 3 ileus and pyelonephritis (n = 1)
  TEAE: ALT increased: 1 (16.7) n (%)
  TEAE: AST increased: 1 (16.7) n (%)
  TEAE: Amylase increased: 2 (33.3) n (%)
  TEAE: Anemia: 1 (16.7) n (%)
  TEAE: Blood creatinine increased: 1 (16.7) n (%)
  TEAE: Diarrhea: 1 (16.7) n (%)
  TEAE: Nausea: 1 (16.7) n (%)
  TEAE: Tumor pain: 0 n (%)
  TRAEs reported (terms): infusion‐related reactions (n = 1), pruritus (n = 1), rash (n = 1), and 1 patient who reported multiple TRAEs, consisting of anemia worsening, fatigue, diarrhea, pruritus, rash, elevated lipase, increased alanine aminotransferase (ALT), and increased aspartate aminotransferase (AST)
  Treatment discontinuation because of a TEAE: 0 n (%)
Advanced solid tumors [2]; first‐in‐human study, endometrial cancer, 3 of 29 patients
  Patients with a response: 10%
Advanced solid tumors [2]; first‐in‐human study, non‐small cell lung cancer, 6 of 26 patients
  Patients with a response: 23%
Advanced solid tumors [2]; phase II study, SCAC
  Patients with SD: 35%
  Patients with a response: 14%
Advanced solid tumors [2]; recurrent MSI‐H or dMMR endometrial cancer, 33 of 76 patients
  Patients with an objective response: 43%
[3]
  Geometric mean clearance normalized for body weight: 4.05 mL/day/kg
  Geometric mean volume of distribution normalized for body weight: 0.0857 L/kg
[4]; 500 mg Q4W i.v. monotherapy, first dose, POD1UM-104, n = 6
  Retifanlimab tmax: 1.9 (1.1, 7.1) h
[4]; Japanese patients [POD1UM‐104]
  Geometric mean clearance normalized for body weight: 3.1 mL/day/kg
  Geometric mean volume of distribution normalized for body weight: 0.0955 L/kg
[4]; POD1UM-104 vs POD1UM‐101
  Mean Ctau at steady state higher in Japanese than Western patients: 43%
[4]; combination cohort
  Drug–drug interaction (retifanlimab PK, combination vs monotherapy cohorts): no drug–drug interaction
[4]; first dose, 500 mg Q4W in combination with INCB001158, n = 3
  Retifanlimab tmax: 0.82 (0.78, 6.0) h
[4]; [7]
  Retifanlimab geometric mean AUCtau: 2280 mg·days/L
  Retifanlimab geometric mean Cmax: 187 µg/mL
  Retifanlimab geometric mean Ctau: 19.0 mg/L
  Retifanlimab median tmax: 0.82 h
[4]; [8]
  Retifanlimab geometric mean AUC0‐∞: 2990 mg·days/L
  Retifanlimab geometric mean AUCtau: 1910 mg·days/L
  Retifanlimab geometric mean Cmax: 209 µg/mL
  Retifanlimab geometric mean Ctau at the end of the 4‐week dosing period: 33.9 mg/L
  Retifanlimab geometric mean clearance: 0.167 L/day
  Retifanlimab geometric mean half‐life: 509 h
  Retifanlimab half‐life, range: 386 to 730 h
  Retifanlimab median tmax: 1.9 h
  Retifanlimab volume of distribution: 5.12 L
[4]; [9]
  Geometric mean AUC0‐∞ higher in Japanese than Western patients: 66%
  Geometric mean AUCtau higher in Japanese than Western patients: 47%
  Geometric mean Cmax higher in Japanese than Western patients: 31%
[4]; monotherapy, 3 patients with available data
  Retifanlimab trough concentrations from cycle 1 to cycle 7: generally increased
[5]
  Retifanlimab ADAs detected: No retifanlimab ADAs were detected; also recorded: No ADAs toward retifanlimab were observed
Advanced solid tumors [6]; Kaplan–Meier, 95% CI, 6.8 months‐not estimable, median follow‐up 11.6 months
  Median DOR: not estimable
Advanced solid tumors [6]; [10]
  Best overall response: Complete response: 1 (16.7) n (%)
  Best overall response: Partial response: 1 (16.7) n (%)
  Best overall response: Progressive disease: 3 (50.0) n (%)
  Best overall response: Stable disease: 1 (16.7) n (%)
Advanced solid tumors [6]; [11]
  Best overall response: Complete response: 1 n (%)
  Best overall response: Partial response: 1 n (%)
  Best overall response: Stable disease: 1 n (%)
Advanced solid tumors [6]; RECIST v1.1, n = 6, 95% CI, 4.3–77.7
  ORR: 33.3% and 33%
Advanced solid tumors [6]; RECIST v1.1, n = 6 per group, 95% CI, 11.8–88.2
  DCR: 50%
Advanced solid tumors [6]; endometrial cancer, ongoing at data cutoff
  DOR of the patient with CR: 16.4 months
Advanced solid tumors [6]; lung cancer
  DOR of the patient with PR: 6.8 months
